The target of the assay is Mycobacterium tuberculosis DnaK, wild type, full length (Mycobacterium tuberculosis, UniProt P9WMJ9 1-625). The assay is described as follows: ITC. Background: In ITC the heat of successive injections is recorded.

B1: Mycobacterium tuberculosis GrpE, wild type, full length (natural protein)
chain: MTDGNQKPDGNSGEQVTVTDKRRIDPETGEVRHVPPGDMPGGTAAADAAHTEDKVAELTADLQRVQADFANYRKRALRDQQAAADRAKASVVSQLLGVLDDLERARKHGDLESGPLKSVADKLDSALTGLGLVAFGAEGEDFDPVLHEAVQHEGDGGQGSKPVIGTVMRQGYQLGEQVLRHALVGVVDTVVVDAAELESVDDGTAVADTAENDQADQGNSADTSGEQAESEPSGS
Consider B1, for which binding was characterised by a dissociation constant (Kd) of 360 nM.

The Kd is a measure of binding affinity in units of concentration. Read a low Kd as higher affinity.

(Values after PMC10803776 (2024).)
